Measured values from publication PMC6965034, “PAK Kinases Target Sortilin and Modulate Its Sorting” (Molecular and Cellular Biology, 2019).

Target: T1, GST-tagged PAK1 (Y270-H545) (human, UniProt Q13153-1 270-545)
T1 construct: human PAK1 C terminus with the entire kinase domain, residues Y270-H545; vector pGEX4T1; also called GST-PAK1; GST-PAK1 kinase domain; source: E. coli BL21, purified; not shown: GST, N-terminal, kept
Experiment: ITC; 25 μM GST-PAK1 in the cell titrated with 100 μM sortilin-cd or peptide in 28 steps of 10 μl at 34°C; 100 mM NaCl, 50 mM Tris-HCl pH 7.5 (pH 7.4 in the results); one set of sites model
Details: both partners purified

T1 sequence (Q13153 270-545): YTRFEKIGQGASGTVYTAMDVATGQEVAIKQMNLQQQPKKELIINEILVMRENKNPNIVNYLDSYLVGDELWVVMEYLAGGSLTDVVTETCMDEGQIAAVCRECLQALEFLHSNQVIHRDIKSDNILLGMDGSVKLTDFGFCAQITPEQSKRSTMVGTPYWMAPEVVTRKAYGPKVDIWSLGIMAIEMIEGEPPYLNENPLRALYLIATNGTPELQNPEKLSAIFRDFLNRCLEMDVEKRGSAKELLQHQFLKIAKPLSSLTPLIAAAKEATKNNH

- Kd: ~2000 nM
B1: complete sortilin cytoplasmic domain (K779-E831), GST tag removed (domain or fragment, human, UniProt Q99523-1 779-831, looked up)
chain: KKYVCGGRFLVHRYSVLQQHAEANGVDGVDALDTASHTNKSGYHDDSDEDLLE
notes: human sortilin cytoplasmic domain K779-E831 (K1-E53 of the cytoplasmic domain); vector pGEX4T1; also called sortilin-cd; wt sortilin-cd; source: E. coli BL21, purified, GST tag removed by thrombin cleavage; not shown: GST, N-terminal, cleaved
